According to publication PMC5712522 (Nature Communications, 2017):

Molecular target: the molecule itself
Assay: SEC-MALS; Shodex KW404-4F column; 50 μg of protein; PBS pH 7.2

B1: LIMP-2 luminal domain H150A (domain or fragment, UniProt Q14108 28-431, looked up)
chain: VFQKAVDQSIEKKIVLRNGTEAFDSWEKPPLPVYTQFYFFNVTNPEEILRGETPRVEEVGPYTYRELRNKANIQFGDNGTTISAVSNKAYVFERDQSVGDPKIDLIRTLNIPVLTVIEWSQVAFLREIIEAMLKAYQQKLFVTHTVDELLWGYKDEILSLIHVFRPDISPYFGLFYEKNGTNDGDYVFLTGEDSYLNFTKIVEWNGKTSLDWWITDKCNMINGTDGDSFHPLITKDEVLYVFPSDFCRSVYITFSDYESVQGLPAFRYKVPAEILANTSDNAGFCIPEGNCLGSGVLNVSICKNGAPIIMSFPHFYQADERFVSAIEGMHPNQEDHETFVDINPLTGIILKAAKRFQINIYVKKLDDFVETGDIRTMVFPVMYLNESVHIDKETASRLKSMINT
notes: LIMP-2 (SCARB2), soluble luminal domain, residues 28–431, with H150A; also called dimerization-deficient mutant; source: Expi293F (HEK), purified in the same manner as the wild-type protein
Q: Does B1 bind?
A: Result: binds

B2: LIMP-2 luminal domain H150A/F151D (domain or fragment, UniProt Q14108 28-431, looked up)
chain: VFQKAVDQSIEKKIVLRNGTEAFDSWEKPPLPVYTQFYFFNVTNPEEILRGETPRVEEVGPYTYRELRNKANIQFGDNGTTISAVSNKAYVFERDQSVGDPKIDLIRTLNIPVLTVIEWSQVADLREIIEAMLKAYQQKLFVTHTVDELLWGYKDEILSLIHVFRPDISPYFGLFYEKNGTNDGDYVFLTGEDSYLNFTKIVEWNGKTSLDWWITDKCNMINGTDGDSFHPLITKDEVLYVFPSDFCRSVYITFSDYESVQGLPAFRYKVPAEILANTSDNAGFCIPEGNCLGSGVLNVSICKNGAPIIMSFPHFYQADERFVSAIEGMHPNQEDHETFVDINPLTGIILKAAKRFQINIYVKKLDDFVETGDIRTMVFPVMYLNESVHIDKETASRLKSMINT
notes: LIMP-2 (SCARB2), soluble luminal domain, residues 28–431, with H150A and F151D; also called dimerization-deficient mutant; source: Expi293F (HEK), purified in the same manner as the wild-type protein
Q: Does B2 bind?
A: Result: binds
